From patent publication US20230303685A1 (ELECTRA THERAPEUTICS, published 2023) come the findings set out here.

One test addresses T1, Cynomolgus Monkey SIRPβ1 (Macaca fascicularis).
T1 construct: extracellular domain; also called cyno SIRPβ1 extracellular domain, plate-coated
Description: ELISA, extracellular domain coated at 2 µg/mL, purified antibody titrated, anti-human IgG, chemiluminescence. (In general: In an ELISA, binding on a coated surface is turned into a signal by an enzyme label.)

The target in test [1] is T2, Human SIRPβ1.
T2 construct: also called human SIRPβ1 extracellular domain, plate-coated
T2 chain: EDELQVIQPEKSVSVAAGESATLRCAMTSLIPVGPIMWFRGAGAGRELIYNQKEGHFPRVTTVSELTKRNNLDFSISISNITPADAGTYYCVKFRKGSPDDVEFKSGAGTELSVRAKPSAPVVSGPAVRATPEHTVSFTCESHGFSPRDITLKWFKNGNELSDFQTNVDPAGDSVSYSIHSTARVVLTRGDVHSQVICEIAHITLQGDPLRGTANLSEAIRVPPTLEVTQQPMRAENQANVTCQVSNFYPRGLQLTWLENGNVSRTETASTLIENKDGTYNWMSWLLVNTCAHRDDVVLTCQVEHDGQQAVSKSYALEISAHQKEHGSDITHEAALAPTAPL
The description is as above.

The target in test [2] is T3, cynomolgus monkey SIRPα extracellular domain, monomeric (cynomolgus monkey, UniProt A0A2K5VYQ9 31-372).
T3 construct: extracellular domain; also called Cyno SIRPα
Described as above.

Test [3] concerns the target T4, Human SIRPγ.
T4 construct: also called human SIRPγ extracellular domain, plate-coated
T4 chain: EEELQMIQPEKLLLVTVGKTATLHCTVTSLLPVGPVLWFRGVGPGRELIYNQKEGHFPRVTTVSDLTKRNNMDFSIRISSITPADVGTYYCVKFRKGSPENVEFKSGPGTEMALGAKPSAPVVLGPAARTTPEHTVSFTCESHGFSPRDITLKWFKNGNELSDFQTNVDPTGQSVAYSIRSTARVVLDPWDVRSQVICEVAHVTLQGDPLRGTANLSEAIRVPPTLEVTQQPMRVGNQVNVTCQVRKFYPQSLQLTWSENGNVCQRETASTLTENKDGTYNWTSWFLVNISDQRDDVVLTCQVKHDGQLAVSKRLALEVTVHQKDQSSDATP
Description: ELISA, extracellular domain coated at 1 µg/mL, purified antibody titrated, anti-human IgG, chemiluminescence. How it is done: (§1) Select SIRP antibodies were purified by Protein G from hybridoma supernatants and analyzed in a titration via ELISA. Briefly, 1 μg/mL of extracellular domain SIRPα was coated onto high protein-binding plates and blocked. Purified antibodies were added in a titration to the coated plates. The antibodies were detected by an anti-rat IgG antibody and a chemiluminescent substrate.
(§2) FIGS. 3A-3C show binding curves of SIRP antibodies and two isotype controls with human Fc to human SIRPα V1, human SIRPβ1, human SIRPγ and cynomolgus monkey SIRPα by ELISA. […] Isotype control 1 was an unrelated human IgG1 antibody with irrelevant CDRs. Isotype control 2 was the same as isotype control 1 but contained the same amino acid substitutions in the Fc region as some of the selected SIRP antibodies for increased FcγR binding (referring to Table 11). DNA was transiently transfected into CHO cells for 7 days. Antibodies were purified by Protein A from cell supernatants and analyzed in a titration via ELISA as previously described in FIGS. 2A-2B using an anti-human IgG antibody as the detection antibody.

In test [4] the target is T4, Human SIRPγ. Description: ELISA, extracellular domain coated at 2 µg/mL, purified antibody titrated, anti-human IgG, chemiluminescence.
Test [5] deals with T5, human SIRPα V1 extracellular domain, monomeric (human, UniProt P78324 31-373).
T5 construct: also called hSIRPα V1
Description: SPR (Biacore); antibody captured by anti-IgG on chip, monomeric SIRPα extracellular domain as analyte, 1:1 model. How it is done:
(§3) Selected antibodies were tested for their affinities to two hSIRPα variants (V1 and V2), and to cynomolgus monkey (herein referred to as “cyno”) SIRPα. The affinities of these SIRP antibodies were determined using surface plasmon resonance. The SIRP antibodies were flowed onto a chip and captured by an anti-mouse IgG or an anti-human IgG covalently coupled to the surface of the chip. A three-point titration of the extracellular binding domain of hSIRPα was performed per the manufacturer's recommended protocols.
(Surface plasmon resonance follows binding to a sensor surface in real time, without labels.)

In test [6] the target is T6, human SIRPα V2 extracellular domain, monomeric (human, UniProt P78324 31-370).
T6 construct: also called hSIRPα V2
The test is described as above. The method, then: as §3

Test [7] addresses T3, cynomolgus monkey SIRPα extracellular …. Described as above. How it is done: as §3
Test [8] has as its target T7, Human SIRPγ CHO.
T7 construct: also called human SIRPγ on CHO cells
T7 chain: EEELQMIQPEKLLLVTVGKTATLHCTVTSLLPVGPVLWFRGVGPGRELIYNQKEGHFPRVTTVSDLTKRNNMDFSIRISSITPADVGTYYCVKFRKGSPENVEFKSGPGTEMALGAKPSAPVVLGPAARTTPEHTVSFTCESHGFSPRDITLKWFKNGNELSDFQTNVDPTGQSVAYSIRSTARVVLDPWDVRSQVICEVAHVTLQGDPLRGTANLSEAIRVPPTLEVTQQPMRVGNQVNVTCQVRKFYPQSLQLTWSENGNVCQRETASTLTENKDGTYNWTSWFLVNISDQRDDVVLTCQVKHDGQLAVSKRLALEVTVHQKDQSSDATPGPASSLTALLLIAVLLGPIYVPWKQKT
As to the kind of experiment: flow cytometry, stably transfected CHO cells, antibody titrated, labelled anti-human IgG, MFI. How it is done:
(§4) Selected antibodies were tested for binding to stably transfected human SIRPα, SIRPβ1 (co-transfected with DAP12), or SIRPγ Chinese hamster ovary (CHO) cells via flow cytometry. A titration of SIRP antibodies was added to the cells and detected using a fluorescently labelled secondary antibody. Graph depicts the median fluorescence intensity (MFI) at each concentration.
A general note: In flow cytometry, cells or beads pass a laser one at a time.

For test [9], the target named is T8, Human SIRPβ1/DAP12 CHO.
T8 construct: also called human SIRPβ1 on CHO cells co-transfected with DAP12; copies: 1 + 2
T8 sequence (DAP12, as listed by the source limits assumed): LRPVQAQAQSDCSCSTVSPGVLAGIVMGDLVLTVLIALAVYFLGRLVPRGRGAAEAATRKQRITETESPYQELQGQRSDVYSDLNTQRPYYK
The description is as above. The method, then:
as §4

The target of test [10] is T9, Human SIRPγ conjugated to an Fc region (human).
T9 construct: also called SIRPγ-Fc; SIRP-Fc; not shown: Fc region
Description: BLI blocking; 200 nM antibody pre-incubated with 20 nM SIRPγ-Fc, binding to immobilised CD47-His (competitor), % of response of SIRPγ-Fc alone.

In another test the target is T10, human SIRPγ-His monomer (human).
T10 construct: 'SIRP-His monomer protein' of the Octet assay; also called SIRP-His; not shown: His tag
As to the kind of experiment: BLI (Octet); antibody on anti-mouse IgG capture tip, SIRP-His monomer; no dissociation seen in 600 s. How it is done:
(§5) Select SIRP antibodies were tested for their affinities to human SIRPα, SIRPβ1, and SIRPγ using a biolayer interferometry (BLI) Octet system (Pall ForteBio). Each SIRP antibody with rat or mouse Fc was immobilized on a biosensor tip by an anti-mouse IgG capture (AMC). Antibodies with human Fc were digested with gingipain K enzyme to yield monomeric F(ab′), biotinylated, then coated onto streptavidin biosensors. […] The biosensors were then exposed to wash buffer to measure off-rate kinetics. The resulting kinetic data were analyzed and fitted using a 1:1 binding model with kₒₙ and kdis fitted separately at each SIRP-His protein concentration. KD affinities were calculated as kdis to kₒₙ ratio at each concentration of SIRP-His and averaged.

Test [11] concerns the target T11, human SIRPα V1-His monomer (human, UniProt P78324 31-373, limits assumed).
T11 construct: 'SIRP-His monomer protein' of the Octet assay; also called SIRP-His; not shown: His tag
As to the kind of experiment: BLI (Octet); antibody on anti-mouse IgG capture tip, SIRP-His monomer at 100, 33.3, 11.1 nM, 1:1 fit, mean KD. The method, then: as §5

Test [12] deals with T5, human SIRPα V1 extracellular domain, …. As to the kind of experiment: ELISA, extracellular domain coated at 1 µg/mL, purified antibody titrated, anti-human IgG, chemiluminescence. How it is done: as §1, §2
Test [13] deals with T4, Human SIRPγ. As to the kind of experiment: ELISA, extracellular domain coated at 2 µg/mL, purified antibody titrated, anti-rat or anti-mouse IgG, chemiluminescence. How it is done: (§6) Select SIRP antibodies were purified by Protein G from hybridoma supernatants and analyzed in a titration via ELISA. Briefly, 2 μg/mL of extracellular domain of each of the SIRPs was coated onto high protein-binding plates and blocked. Purified antibodies were added in a titration to the coated plates. The antibodies were detected by an anti-rat IgG or an anti-mouse IgG antibody and a chemiluminescent substrate.

Test [14] addresses T2, Human SIRPβ1. The test is described as above. How it is done: as §6
Test [15] addresses T7, Human SIRPγ CHO. Description: flow cytometry, stably transfected CHO cells, antibody titrated, labelled anti-rat or anti-mouse IgG, MFI. The method, then: as §4
The target of test [16] is T8, Human SIRPβ1/DAP12 CHO. The description is as above. How it is done:
as §4

B1: Antibody 28 (antibody, V domains shown)
VH: QVQLQESGPGLVKPSGTLSLTCAVSGGSISSSNWWSWVRQPPGKGLEWIGEIYHSGSTNYNPSLKSRVTISVDKSKNQFSLKLSSVTAADTAVYYCARRGIWFGVGPWGQGTLVTVSS
VL: DIVMTQSPLSLPVTPGEPASISCRSSQSLLHGNGFNYLDWYLQKPGQSPQLLIYLGSNRASGVPDRFTGSGSGTDFTLKISRVEAEDVGVYYCMQGLQTPRTFGQGTKVEIK
What is called EC50 (read off the curve) is the concentration giving half of the maximal effect. A word on the Kd: it is the equilibrium constant for the complex coming apart. For the molecule B1, the “EC50 (read off the curve)” value is roughly 0.04 µg/mL in the test with Cynomolgus Monkey SIRPβ1; roughly 0.04 µg/mL with Human SIRPβ1 [1]; roughly 0.04 µg/mL in test [2]; roughly 0.04 µg/mL with Human SIRPγ [3]; roughly 0.03 µg/mL with Human SIRPγ [4]; roughly 0.3 µg/mL in the test with Human SIRPγ CHO [8]. The “EC50 (read off the curve)” value in the test with Human SIRPβ1/DAP12 CHO [9] was roughly 0.4 µg/mL. Besides, the Kd in test [5] came to 311 nM; in [6], 373 nM; in test [7] it was 361 nM. Moreover, the “SIRPγ-CD47 Response (%)” value in test [10] stood at 144%.

B2: Antibody 13 (antibody, V domains shown)
VH: EVQMLESGGGLVQPGGSLRLSCAASGFTFSSYAMSWVRQAPGKGLEWVSAISGSGSSTHYADSVKGRFTISRDNSKNTLYLQMNSLRAEDTAVYYCAAYSGSYYYYGMDVWGQGTTVTVSS
VL: EIVMTQSPATLSVSPGERATLSCRASQSVSRNLAWYQQKSGQAPRLLIYGASTRATGIPARFSGSGSGTEFTLTISSLQSEDFAGYYCQQYNNWPYTFGQGTKLEIK
notes: Human variable region, rat IgG2b Fc; from hybridoma
With B2, the Kd was less than 0.001 nM with human SIRPγ-His monomer, 12.6 nM in test [5], 16.7 nM in test [7] and 0.922 nM in test [11]. Also, in test [10], the “SIRPγ-CD47 Response (%)” value is 111%.

B3: Antibody 29 (antibody, V domains shown)
VH: EVQMLESGGGLVQPGGSLRLSCAASGFTFSSYAMSWVRQAPGKGLEWVSAISGSGSSTHYADSVKGRFTISRDNSKNTLYLQMNSLRAEDTAVYYCAAYSGSYYYYGMDVWGQGTTVTVSS
VL: EIVMTQSPATLSVSPGERATLSCRASQSVSRNLAWYQQKSGQAPRLLIYGASTRATGIPARFSGSGSGTEFTLTISSLQSEDFAGYYCQQYNNWPYTFGQGTKLEIK
Consider B3, for which the “EC50 (read off the curve)” value in test [12] was roughly 0.06 µg/mL; with Human SIRPγ [3] it was roughly 0.05 µg/mL. For the same molecule, the values for the Kd in test [5], in test [6] and in test [7] were 8.32 nM, 10.3 nM and 11.1 nM, respectively.

B4: Antibody 12 (antibody, V domains shown)
VH: EVQVLESGGGLVQPGGSLRLSCAASGFTFSSYAMSWVRQAPGKGLEWVSAISGSGSSTHYADSVKGRFTISRDNSKNTLYLQMNSLRAEDTAVYYCAAYSGSYYYYGMDVWGQGTTVTVSS
VL: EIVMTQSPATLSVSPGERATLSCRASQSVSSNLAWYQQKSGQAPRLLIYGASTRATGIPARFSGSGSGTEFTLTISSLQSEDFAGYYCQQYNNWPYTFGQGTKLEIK
notes: as for B2
Take B4: the Kd is less than 0.001 nM in the test with human SIRPγ-His monomer and 5.31 nM in [11]. In addition, the binding result with Human SIRPγ [13], with Human SIRPβ1 [14], with Human SIRPγ CHO [15] and with Human SIRPβ1/DAP12 CHO [16] was “binds” each time. For the same molecule, the “SIRPγ-CD47 Response (%)” value in test [10] amounted to 120%.
